Data on one molecule can be found in US20230406933A1 (RANDOX LABORATORIES, published 2023).

For assay [1], the target named is T1, PDL1 coated in the commercial PD1:PDL1 inhibition assay (Acro Biosystems Cat# EP-101) (Homo sapiens (Human), UniProt Q9NZQ7 19-238).
T1 construct: Kit reagent; construct not described
Nature of the assay: Acro Biosystems PD1:PDL1 inhibition assay; PDL1 coated, biotinylated PD1 as competitor; reference Avelumab.

For assay [2], the target named is PD-L1 on the cell surface in the Promega PD1/PD-L1 Blockade Bioassay (Cat# J1250). Nature of the assay: cell-based or functional assay.

B1: humanised 32.1A1 clone (VHH)
VHH: QVQLVESGGGLVQPGGSLRLSCAASGRTFREYGMGWFRQAPGKGLEWVATISSSGSYSYYADSVKGRFTISRDNSKNTLYLQMNSLRAEDTAVYYCAASSLLRGSSSRAESYDSWGQGTLVTVSS
notes: CDRs of 32.1A1 grafted into a model human VH3 framework; Expressed from pScreen, purified by IMAC, detected with anti-Myc HRP; also called hum-32.1A1; hum32.1A1
As to B1, the “amount of blocking relative to Avelumab” value in assay [1] came out at 10 fold. Also, the “EC50 of luciferase activity fold change, Promega PD-1/PD-L1 blockade bioassay, panel GS542” value in assay [2] stood at 0.165 µg/mL.
